Data taken from the Human Domainome abundance scans (Beltran et al. 2025).
± gives the uncertainty stated by the source.

B1: Transcription factor SOX-11, residues 50 to 117; numbered along this chain, P35716 (parent)
chain: KRPMNAFMVWSKIERRKIMEQSPDMHNAEISKRLGKRWKMLKDSEKIPFIREAERLRLKHMADYPDYK

Variants of: B1
Test: abundance fitness (aPCA) (normalised: wild type 0, dead -1); higher = more abundant; growth selection in yeast, the domain comes from the species named
Conditions: Homo sapiens

First: K39W
Second: K39H
The abundance fitness of the first is lower: -1.03 ± 0.36 for the first, -0.473 ± 0.087 for the second.

First: K39N
Second: K39F
The abundance fitness of the first is higher: -0.045 ± 0.053 for the first, -0.455 ± 0.065 for the second.

A53C and A53E are within error of each other in abundance fitness: -0.728 ± 0.084 for the first, -0.622 ± 0.18 for the second.

A53K and A53I are within error of each other in abundance fitness: -1.12 ± 0.34 for the first, -0.709 ± 0.098 for the second.

L41Y and L41A are within error of each other in abundance fitness: -0.753 ± 0.08 for the first, -0.671 ± 0.099 for the second.

L41C and L41W are within error of each other in abundance fitness: -0.876 ± 0.098 for the first, -0.867 ± 0.36 for the second.

Compared with L41V, M40R is higher in abundance fitness: -0.53 ± 0.068 for the first, -0.372 ± 0.072 for the second.

Compared with M40Y, M40P is lower in abundance fitness: -0.383 ± 0.058 for the first, -0.711 ± 0.18 for the second.

Compared with M40Q, F7Y is lower in abundance fitness: 0.361 ± 0.14 for the first, -0.203 ± 0.059 for the second.

F7G and F7P are within error of each other in abundance fitness: -0.765 ± 0.12 for the first, -0.967 ± 0.16 for the second.

Going from R2W to R2Q, the abundance fitness rises from -0.97 ± 0.34 to 0.037 ± 0.14.

Going from R2T to R2F, the abundance fitness falls from 0.282 ± 0.061 to 0.091 ± 0.075.

Going from D43P to D43C, the abundance fitness falls from 0.009 ± 0.081 to -0.448 ± 0.066.

Compared with P3L, N5M is lower in abundance fitness: -0.118 ± 0.085 for the first, -0.724 ± 0.15 for the second.

Compared with N5P, S11G is higher in abundance fitness: -0.544 ± 0.089 for the first, -0.283 ± 0.12 for the second.

First: S11F
Second: H60I
The abundance fitness of the first is lower: -0.471 ± 0.096 for the first, -0.178 ± 0.066 for the second.

Going from R16A to R16G, the abundance fitness falls from 0.218 ± 0.062 to -0.105 ± 0.056.

Compared with R16Y, R16S is higher in abundance fitness: -0.372 ± 0.064 for the first, -0.134 ± 0.049 for the second.

Going from M61T to M25E, the abundance fitness falls from 0.058 ± 0.06 to -0.739 ± 0.23.

Going from M25R to F49W, the abundance fitness rises from -0.546 ± 0.078 to -0.256 ± 0.11.

Compared with P48I, P48C is lower in abundance fitness: -0.43 ± 0.089 for the first, -0.634 ± 0.087 for the second.

P48N and P48T are within error of each other in abundance fitness: -0.598 ± 0.093 for the first, -0.719 ± 0.11 for the second.

I13W and E45K are within error of each other in abundance fitness: -0.684 ± 0.15 for the first, -0.667 ± 0.24 for the second.

E45I and I50K are within error of each other in abundance fitness: -0.336 ± 0.064 for the first, -0.228 ± 0.17 for the second.

I50A and K32T are within error of each other in abundance fitness: -0.287 ± 0.074 for the first, -0.308 ± 0.073 for the second.

First: K32L
Second: E29R
The abundance fitness of the first is higher: -0.175 ± 0.058 for the first, -1.1 ± 0.13 for the second.

First: E29C
Second: S31L
The abundance fitness of the first is lower: -0.767 ± 0.087 for the first, -0.2 ± 0.063 for the second.

S31G and S31Q are within error of each other in abundance fitness: -0.278 ± 0.058 for the first, -0.213 ± 0.13 for the second.

Going from S31P to V9H, the abundance fitness rises from -0.855 ± 0.18 to -0.402 ± 0.087.

Compared with H26K, H26L is lower in abundance fitness: 0.195 ± 0.1 for the first, -0.146 ± 0.054 for the second.

Compared with H26D, H26R is lower in abundance fitness: 0.414 ± 0.055 for the first, -0.106 ± 0.057 for the second.

Going from E20Y to D24G, the abundance fitness rises from -0.781 ± 0.1 to -0.105 ± 0.057.

Going from D24N to R15P, the abundance fitness falls from -0.128 ± 0.071 to -1.1 ± 0.33.

Going from R15T to R15F, the abundance fitness falls from -0.073 ± 0.085 to -0.601 ± 0.1.

R15Q and I47M are within error of each other in abundance fitness: -0.108 ± 0.18 for the first, 0.101 ± 0.072 for the second.

First: I47L
Second: I47N
The abundance fitness of the first is higher: 0.162 ± 0.042 for the first, -0.529 ± 0.05 for the second.

S22D and S22Q are within error of each other in abundance fitness: 0.042 ± 0.059 for the first, -0.09 ± 0.14 for the second.

First: R51T
Second: M8F
The abundance fitness of the first is lower: -0.29 ± 0.075 for the first, -0.14 ± 0.051 for the second.

Compared with M8A, I18D is lower in abundance fitness: 0.101 ± 0.068 for the first, -0.741 ± 0.12 for the second.

First: I18Q
Second: I18Y
The abundance fitness of the first is lower: -0.869 ± 0.33 for the first, -0.34 ± 0.075 for the second.

First: R55G
Second: R55D
The abundance fitness of the first is lower: -0.313 ± 0.055 for the first, -0.119 ± 0.058 for the second.

Y67I and Y67H are within error of each other in abundance fitness: -0.027 ± 0.097 for the first, 0.089 ± 0.056 for the second.
